Source: publication PMC5962637, “Simultaneous cell disruption and semi-quantitative activity assays for high-throughput screening of thermostable L-asparaginases” (Scientific Reports, 2018)

Substrate: NC(=O)C[C@H](N)C(=O)O
Experiment: ammonia release with Nessler's reagent, A450; Michaelis-Menten plot
Assay type: biochemical, Pyrococcus yayanosii
Conditions: 50 mM Tris-HCl pH 8.0, 95 °C, substrate range 0.05-2.0 mM

B1: P. yayanosii CH1 L-asparaginase (pyasnase) (Pyrococcus yayanosii CH1) (protein)
chain: MRLLILGMGGTIASVPSEEGYESSLSVEEILRLAGLELKWEVEARDLLNIDSTLIQPEDWVLLAETVFEAFEEFDGVVITHGTDTLAYTASMLSFMVRNPPVPIVLTGAMRPITEPGSDAPRNLWTALRFAIEGVPGVYVAFMDKVMLGVRVSKVRAVGLNAFQSINYPDIAYVKGNRIHWNAKPPKLEGEPVLDTRHEPRVLVLRLVPGMEGDVLEAALELGYRGIVLEGYGVGGIPYRGRDLLDVVRRVATEIPVVMTTQTLYDGVDLTKYKVGRKALEVGVIPAGDMTKEATITKLMWILGHTRDVGEVRRLMLTNMVGEIGKSA
notes: C-terminal His-tag (in primer R1); codon-optimised synthetic gene, pMA5, Bacillus subtilis 168; homodimer (homology model)
B1 gave a Km of 6.5 mM.
